Experimental findings from US20220289816A1, “IMMUNOTHERAPY WITH B*07 RESTRICTED PEPTIDES AND COMBINATION OF PEPTIDES AGAINST CANCERS AND RELATED METHODS” (Immatics Biotechnologies GmbH, priority 2018, published 2022) are described below.

The target of the assay is HLA-B*07 (Homo sapiens, UniProt P01889). The assay can be described thus: MHC binding assay (UV-ligand exchange, ELISA of stabilized MHC complexes). As to conditions: peptide exchange yield on HLA-B*07, UV-ligand exchange. The gist of the method:
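Binding is reported as exchange yield: an ELISA with HRP-conjugated anti-β2m (A450, TMB) quantified how much test peptide stabilized MHC after UV cleavage of a photolabile placeholder peptide. Exchange monomers were diluted 100-fold and captured on streptavidin-coated plates for 1 h at 37 °C.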
For orientation: An ELISA detects its analyte on a solid surface through an enzyme-linked reagent.
Consider “238 (LPRAGGAFLM; listed as Homo sapiens) [compound 238]”, for which the Peptide exchange result was “++++ (>75% = ++++)”.
The value for “239 (VLPRAGGAFLM; listed as Homo sapiens) [compound 239]” was “+++ (>50 = +++)”; that for “240 (RVMLPKAAL; listed as Homo sapiens) [compound 240]” was “+++ (>50 = +++)”.
Next, “242 (IPETASVVAI; listed as Homo sapiens) [compound 242]”: “+++ (>50 = +++)”; “243 (MARTGGMVVI; listed as Homo sapiens) [compound 243]”: “++ (>20% = ++)”; “244 (VPAHLVAA; listed as Homo sapiens) [compound 244]”: “++ (>20% = ++)”.
Next, “245 (GPVPSPLAL; listed as Homo sapiens) [compound 245]”: “++++ (>75% = ++++)”.
Turning to “246 (RPILKEQSSSSF; listed as Homo sapiens) [compound 246]”, the Peptide exchange result was “++++ (>75% = ++++)”.
For “247 (SPVGVGQRL; listed as Homo sapiens) [compound 247]”, the Peptide exchange result is “+++ (>50 = +++)”.
Next, “248 (KPYDGIPAS; listed as Homo sapiens) [compound 248]”: “+++ (>50 = +++)”; “249 (SPRSGVLL; listed as Homo sapiens) [compound 249]”: “+++ (>50 = +++)”.
The value for “250 (APAAPAAVPS; listed as Homo sapiens) [compound 250]” was “++ (>20% = ++)”.
Next, “251 (MPVDSFNSM; listed as Homo sapiens) [compound 251]”: “++++ (>75% = ++++)”.
As to “252 (QPENSLEGISL; listed as Homo sapiens) [compound 252]”, the Peptide exchange result was “+++ (>50 = +++)”.
Next, “253 (MPVDSFNSML; listed as Homo sapiens) [compound 253]”: “++++ (>75% = ++++)”.
The value for “254 (RVIQGTTTL; listed as Homo sapiens) [compound 254]” was “++++ (>75% = ++++)”; that for “255 (VPSHWMVAL; listed as Homo sapiens) [compound 255]” was “++++ (>75% = ++++)”; that for “256 (SPVPSHWMVAL; listed as Homo sapiens) [compound 256]” was “++++ (>75% = ++++)”.
Next, “258 (SVIGPNSRL; listed as Homo sapiens) [compound 258]”: “++ (>20% = ++)”; “259 (VPMPGVQAV; listed as Homo sapiens) [compound 259]”: “++++ (>75% = ++++)”.
Consider “260 (LVQSSRSEV; listed as Homo sapiens) [compound 260]”, for which the Peptide exchange entry is recorded as “++++ (>75% = ++++)”.
Next, “261 (SPSTSRTPL; listed as Homo sapiens) [compound 261]”: “+++ (>50 = +++)”; “262 (SPSTSRTPLLSSL; listed as Homo sapiens) [compound 262]”: “++++ (>75% = ++++)”; “263 (SQRPPATSQA; listed as Homo sapiens) [compound 263]”: “++ (>20% = ++)”.
“264 (APRPGNWIL; listed as Homo sapiens) [compound 264]”: the Peptide exchange result is “+++ (>50 = +++)”.
The value for “265 (FPRKPYEGRV; listed as Homo sapiens) [compound 265]” was “+++ (>50 = +++)”; that for “266 (KPYEGRVEI; listed as Homo sapiens) [compound 266]” was “++++ (>75% = ++++)”.
Turning to “267 (MPVPGILL; listed as Homo sapiens) [compound 267]”, the Peptide exchange result is recorded as “+++ (>50 = +++)”.
The value for “268 (EPLSVTASY; listed as Homo sapiens) [compound 268]” was “++ (>20% = ++)”; that for “269 (FTVSSSSAM; listed as Homo sapiens) [compound 269]” was “++ (>20% = ++)”.
Take “270 (SPRGTTSTL; listed as Homo sapiens) [compound 270]”: the Peptide exchange entry was “+++ (>50 = +++)”.
For “271 (SPTPVFTTL; listed as Homo sapiens) [compound 271]”, the Peptide exchange result was “+++ (>50 = +++)”.
The value for “272 (SSPRGTTSTL; listed as Homo sapiens) [compound 272]” was “+++ (>50 = +++)”; that for “273 (TDTPSTTPTTI; listed as Homo sapiens) [compound 273]” was “++ (>20% = ++)”; that for “274 (KPIRTGISPLAL; listed as Homo sapiens) [compound 274]” was “+++ (>50 = +++)”.
For “275 (IPAPQGAVL; listed as Homo sapiens) [compound 275]”, the Peptide exchange entry is “+++ (>50 = +++)”.
The value for “276 (RPVWDVRSA; listed as Homo sapiens) [compound 276]” was “++++ (>75% = ++++)”; that for “277 (MPPLLIVAF; listed as Homo sapiens) [compound 277]” was “++ (>20% = ++)”; that for “278 (LIAARGSLVL; listed as Homo sapiens) [compound 278]” was “+++ (>50 = +++)”.
“279 (APADEPRTVL; listed as Homo sapiens) [compound 279]”: the Peptide exchange entry is “+++ (>50 = +++)”.
Next, “280 (LPRAFLQSL; listed as Homo sapiens) [compound 280]”: “++++ (>75% = ++++)”; “281 (NPRSPPATM; listed as Homo sapiens) [compound 281]”: “++++ (>75% = ++++)”; “282 (AVRLPTPNL; listed as Homo sapiens) [compound 282]”: “++++ (>75% = ++++)”.
In the case of “283 (RPQPGWRESL; listed as Homo sapiens) [compound 283]”, the Peptide exchange entry was “++++ (>75% = ++++)”.
Next, “284 (RPSAPRGPP; listed as Homo sapiens) [compound 284]”: “++++ (>75% = ++++)”; “285 (RITWKGLLL; listed as Homo sapiens) [compound 285]”: “+++ (>50 = +++)”.
The value for “286 (APARPAAAF; listed as Homo sapiens) [compound 286]” was “++++ (>75% = ++++)”.
The value for “287 (SPIPRPLFL; listed as Homo sapiens) [compound 287]” was “++++ (>75% = ++++)”; that for “288 (LHAMNSLSAM; listed as Homo sapiens) [compound 288]” was “+++ (>50 = +++)”.
As for “289 (LPYEKVSRL; listed as Homo sapiens) [compound 289]”, the Peptide exchange entry was “+++ (>50 = +++)”.
Next, “290 (RPTHPLRSF; listed as Homo sapiens) [compound 290]”: “++++ (>75% = ++++)”; “291 (SPSKSLEM; listed as Homo sapiens) [compound 291]”: “+++ (>50 = +++)”.
Take “292 (LPMTHRLQL; listed as Homo sapiens) [compound 292]”: the Peptide exchange result was “+++ (>50 = +++)”.
As for “293 (FPYDKPLIM; listed as Homo sapiens) [compound 293]”, the Peptide exchange entry is reported as “++++ (>75% = ++++)”.
For “294 (VPKPAIPSSSVL; listed as Homo sapiens) [compound 294]”, the Peptide exchange result is “++++ (>75% = ++++)”.
For the substance “295 (HPRWIEPTVM; listed as Homo sapiens) [compound 295]”, the Peptide exchange entry was “++++ (>75% = ++++)”.
With “296 (SPLLMQRTL; listed as Homo sapiens) [compound 296]”, the Peptide exchange entry is reported as “++++ (>75% = ++++)”.
Next, “298 (RVLLRWISL; listed as Homo sapiens) [compound 298]”: “+++ (>50 = +++)”; “299 (SPFSGGPVSF; listed as Homo sapiens) [compound 299]”: “++++ (>75% = ++++)”.
As for “300 (HPYSDLADVF; listed as Homo sapiens) [compound 300]”, the Peptide exchange entry is on record as “+++ (>50 = +++)”.
With “301 (FPAFLEAM; listed as Homo sapiens) [compound 301]”, the Peptide exchange result is given as “+++ (>50 = +++)”.
The value for “302 (IPIDQILNSF; listed as Homo sapiens) [compound 302]” was “+++ (>50 = +++)”.
For the substance “303 (RPPPPCIAL; listed as Homo sapiens) [compound 303]”, the Peptide exchange result is “++++ (>75% = ++++)”.
Consider “304 (SPLIGDFPAF; listed as Homo sapiens) [compound 304]”, for which the Peptide exchange result is on record as “++ (>20% = ++)”.
Consider “305 (AASPVGSAL; listed as Homo sapiens) [compound 305]”, for which the Peptide exchange result is on record as “+++ (>50 = +++)”.
Next, “306 (RPFPLALL; listed as Homo sapiens) [compound 306]”: “+++ (>50 = +++)”.
Next, “307 (RPHQKGWLSI; listed as Homo sapiens) [compound 307]”: “+++ (>50 = +++)”; “308 (RPDVVRTLL; listed as Homo sapiens) [compound 308]”: “++++ (>75% = ++++)”.
For the substance “309 (FAFYGGKSL; listed as Homo sapiens) [compound 309]”, the Peptide exchange result is given as “+++ (>50 = +++)”.
The value for “310 (SPGWAQTQL; listed as Homo sapiens) [compound 310]” was “++++ (>75% = ++++)”; that for “311 (APRLALDPDAL; listed as Homo sapiens) [compound 311]” was “++++ (>75% = ++++)”.
Next, “312 (SPSLQSSRESL; listed as Homo sapiens) [compound 312]”: “+++ (>50 = +++)”.
